Substitutions are numbered along the chain they refer to.
T1: K89D
T1 construct: also called human CI-M6PR Dom1-3His6 K89D
T1 chain: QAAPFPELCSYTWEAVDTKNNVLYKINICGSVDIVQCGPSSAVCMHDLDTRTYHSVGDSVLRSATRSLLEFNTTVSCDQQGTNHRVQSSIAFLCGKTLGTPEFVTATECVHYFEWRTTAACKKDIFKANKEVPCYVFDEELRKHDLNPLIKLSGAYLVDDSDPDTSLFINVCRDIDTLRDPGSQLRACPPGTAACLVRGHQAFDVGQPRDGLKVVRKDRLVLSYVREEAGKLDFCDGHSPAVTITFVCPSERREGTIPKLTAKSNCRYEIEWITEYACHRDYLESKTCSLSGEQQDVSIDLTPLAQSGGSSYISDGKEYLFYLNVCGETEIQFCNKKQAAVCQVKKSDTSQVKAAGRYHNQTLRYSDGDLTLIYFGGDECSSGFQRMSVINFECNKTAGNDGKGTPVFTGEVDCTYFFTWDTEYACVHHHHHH

T2: L197D
T2 construct: also called human CI-M6PR Dom1-3His6 L197D
T2 chain: T1 chain with D49K, L157D

B1: anti-CI-M6PR VHH5 (VHH)
VHH: QVQLQESGGGLVQAGGSLKLSCAAAGRTFSRLAMGWFRQAPGKEREFVAAISENGDSIHYSDSVKGRFAVSRDNAKNTVYLQMNSLKPEDTAIYYCAADRAAYYCSGSGCYPSRAPAAASYDYWGQGTQVTVSS
notes: His6-tagged; made in Pichia pastoris, later also in E. coli WK6
B2: anti-CI-M6PR VHH 1H11 (VHH)
VHH: QVQLQESGGGLVQPGGSLRLSCAASGIIFSDNRMDWYRQAPGKQREWVATLASYGWKTYADSVKDRFTISRDNAKNTVNLYMNSLQPEDTAVYYCNSGQYWGQGTQVTVSS
notes: made in E. coli WK6, His-tag purified
B3: anti-CI-M6PR VHH7 (VHH)
VHH: QVQLQESGGGLVQPGGSLRLSCAASGIIFSDNRMDWYRQAPGKQREWVATLASYGWKTYADSVKGRFTISRDNTKNTVYLRMNSLKPEDTAVYYCKASSPVLNDIWGQGTQVTVSS
notes: His6-tagged (Pichia pastoris)
B4: anti-CI-M6PR VHH1 (VHH)
VHH: QVQLQESGGGLVQPGGSLRLSCVASGFTFDRYWMNWLRQIPGKEIEWVSTINTGGTGTYYDDSVKGRFSISRDDAKNTLYLTMNSLKTEDTAVYYCARGATYYRGNSAIRGQGTQVTVSS
notes: as for B1
B5: anti-CI-M6PR VHH8 (VHH)
VHH: QVQLQESGGGLVQAGGSLRLSCEASGRTFNTYNWGWFRQAPGKEREFVAAIRWSSSKTSYADSVKGRFTISRDNAKNTIYLQMNSLKPEDTAVYYCAASIVDFTTNPSHFGSWGQGTQVTVSS
notes: His6-tagged (Pichia pastoris)

Experiments:
[1] = target: human cation-independent mannose-6-phosphate receptor, native, on cells (human, UniProt P11717 41-2491); assay: cell-based or functional assay
[2] = target: T1, K89D; assay: ELISA on coated antigen (100 ng), anti-VHH-HRP, A450
Description: (§1) To determine the effect of site-directed mutations, an ELISA was performed. To this end, 100 ng of each successfully purified mutant was coated per well on Nunc Maxisorp plates in 50 mM MES, 150 mM NaCl, pH 6.5 buffer overnight at 4° C. […] Coating-only controls were included for background correction. […] Reactions were stopped after five minutes using a 2N H₂SO₄ solution and plates were read at 450 nm, with a 655 nm background correction. Data were analyzed using the GraphPad Prism 9 software.

[3] = target: T3, recombinant human domain 1-3His6 of the cation-independent mannose-6-phosphate receptor (human, UniProt P11717 41-467); assay: as above
T3 construct: Biotinylated (NHS-PEG4-biotin) for BLI; Glycosylated; also called hDom1-3His6; hCI-M6PRD1-D3
Description: as §1

[4] = target: T3, recombinant human domain 1-3His6 of the …; assay: ELISA on coated human CI-M6PRD1-D3, non-linear fit of the curves of FIG 36A
Description: FIGS. 36A-C. […] (FIG. 36A) ELISA assay in which each construct was serially diluted and incubated on human CI-M6PR_D1-D3 and the detected absorbance (Abs) at 450 nm was set out in function of concentration. […] Graphs created in Graphpad Prism 9.0.0.

[5] = target: T2, L197D; assay: ELISA on coated antigen (100 ng), anti-VHH-HRP, A450
Description: as §1

[6] = target: T3, recombinant human domain 1-3His6 of the …; assay: BLI exp 2, dissoc pH 5.5
Description: For each of the 11 anti-CI-M6PR VHHs, a biolayer interferometry (BLI) experiment was performed in which the hDom₁₋₃His₆ was biotinylated and coupled to streptavidin biosensor tips. Afterwards, the tips were incubated with serially diluted VHHs during the association phase and dissociation was performed at pH 7.4. Similarly, dissociation was performed at pH 7.0, pH 6.0 and pH 5.0 as well after regeneration of the biosensor tips. […] The anti-CI-M6PR antibody (clone 2G11) and GBP were used as positive and negative controls, respectively.
Analysis of the binding kinetics was performed using an Octet Red96 (FortéBio) device with Streptavidin SA Biosensor tips (VWR, 733-2145). To this end, 1 mL of hCI-M6PR_D1-D3 (0.5 mg/mL in 50 mM MES, 150 mM NaCl, pH 6.5) was incubated at room temperature for 30 minutes with a two-fold molar excesses of EZ-Link™ NHS-PEG₄-Biotin (Thermo Fischer, A39259) and NaHCO₃ (100 mM, pH 8.3). Biotinylated hCIMPR_D1-D3 was purified using a Zeba spin desalting column (Thermo Fischer, 89890) and protein concentration was calculated by measuring the absorbance at 280 nm (extinction coefficient 50320 M¹ cm⁻¹). Two-fold biotin-labelled antigen was loaded on the tips (2.5 μg/mL) and subsequently dipped into a particular anti-CI-M6PR VHH-containing solution (ranging from 0-100 nM). Serial VHH dilutions were made in kinetics buffer (0.2 M Na₂HPO₄, 0.1 M Na⁺ citrate, 0.01% BSA, 0.002% Tween20, pH 7.4). After association (100 sec), dissociation was conducted (500 sec) for each anti-CI-M6PR VHH in the kinetics buffer, followed by biosensor regeneration in glycine (10 mM, pH 3) and neutralisation. The same cycle was repeated with dissociation performed in kinetics buffer of pH 7.0, 6.5, 6.0, 5.5, and 5.0.
A reference well and reference sensors were subtracted from ligand sensors afterwards and Savitsky-Golay filtering was applied on the data. Fitting of the data was performed using a 1:1 model, grouped per dissociation pH.

| Binder | internalisation rate (live-cell imaging of AF488-VHH on MCF7 cells) [1] [summed AF-voxels/minute] | EC50 (read off the curve) [2] [nM] | EC50 (read off the curve) [3] [nM] | EC50 [4] [nM] | EC50 (read off the curve) [5] [nM] | koff [6] [s⁻¹] | kon [6] [M⁻¹ s⁻¹] |
| --- | --- | --- | --- | --- | --- | --- | --- |
| B1 | 687000 | ~2 | ~2 | 65 | ~4 | – | – |
| B2 | – | ~0.7 | ~0.4 | – | ~0.4 | – | – |
| B3 | 1.26e+06 | – | ~0.3 | 0.45 | – | 0.027 | 35000 |
| B4 | 1.38e+06 | – | ~10 | 19 | – | 0.04 | 47000 |
| B5 | 673000 | ~3 | ~3 | 0.16 | ~20 | 0.0025 | 1.9e+08 |

From patent US20250263490A1 (VIB VZW, published 2025)
